Patent publication US20050176118A1, “Esterases with lipase activity” (priority 2002, published 2005)

What was measured:
[1] = cited from earlier work
[2] = Fluorometric determination of lipase activity; type: biochemical; conditions: 4-MU-palmitate 10^−4M; ± standard error of duplicate assays
Description: A fluorogenic assay was used to measure lipase activity of insect esterases or lipases, and mutants thereof. The fluorogenic substrate provides rapid reproducible methods for measuring enzymatic activity. Fatty acid esters (acylated) of 4-methylumbelliferone fluorophors are used as substrates for the identification of lipase activity. This assay uses the fluorophore 4-methylumbelliferyl palmitate (4-MU-palmitate) (structure provided below) and is a modification of the fluorometric esterase titration assay of Devonshire et al. (2002) and the method of Hamid et al. (1994) used for the rapid characterisation and identification of Mycobacteria. [drawing 4]
4-MU-palmitate is hydrolysed by a lipase to release the fluorescent 4-methylumbelliferone (4-MU), which can be measured by a fluorimeter.
A standard curve for 4-MU is prepared in each plate alongside the titrations. 25 μL 10^−2M dMU stock (19.8 mg/10 ml in 100% ethanol) was diluted with 2.475 ml (3×825 μl) ethanol to give a 10^−4M solution. This 10^−4M solution was used to prepare a standard curve from 0 to 1.0 μM in 0.1M phosphate buffer pH 7.0 (plus 0.05% or 0.5% ultrapure Triton X-100 (TX100) if present in cell extracts). This was done by dispensing 25 μl, 20 μl, 15 μl, 10 μl, 5 μl, 0 μl (plus ethanol to 25 μl) into tubes and adding 2.475 ml phosphate buffer (or phosphate buffer containing TX100 if required), then adding 100 μl per well. This gives 0.2, 0.4, 0.6, 0.8 and 1.0 uM in 0.25% TX100.
The samples were read on a Fluorostar fluorometer (BMG LabTechnologies) alongside the following titration reactions using the basic settings: excitation—355 nm, emission—460 nm, gain—zero, 10 cycles of 180 secs with shaking before each cycle.
For the assay, 20 μl of 5×10^−4 4-MU-palmitate (in 100% acetone) was to the wells that require substrate (II & III as defined in Table 4 below) and air dried. […] Cell extracts should be added immediately before readings start.
Corrected fluorescence (Fcorrected) was calculated by the following equations. […]

[3] = Permethrin hydrolysis, radiometric partition assay (acid-labelled substrate); type: biochemical; conditions: sequential incubation of trans permethrin with E3WT and E4 from OP resistant aphid homogenates
Protocol: Expressed enzymes were tested for permethrin hydrolytic activity using a radiometric partition assay for acid-labelled compounds, or a TLC based assay for those labelled in the alcohol moiety (Devonshire and Moores, 1982). […] The power of the analyses was increased by separating permethrin into its cis and trans isomers.
Preparative thin layer chromatography (TLC) on silica was used to separate the isomers into two enantiomer pairs: 1S/1R cis and 1S/1R trans. […] Enzyme preparations could then be assayed for the hydrolysis of each enantiomer pair.
This assay (Devonshire and Moores, 1982) is used for permethrin isomers. It relies on incubating the expressed esterase with radiolabelled substrate and then measuring the radioactive cyclopropanecarboxylate anion in the aqueous phase after extracting the unchanged substrate into organic solvent. Based on previous experience, the best extraction protocol utilises a 2:1 (by volume) mixture of methanol and chloroform. […] Subsequent addition of an excess of chloroform and buffer exceeds the capacity of the methanol to hold the phases together, so that the organic phase can be removed and the product measured in the aqueous phase. […]

[4] = Hydrolysis of Type II pyrethroid, chloroform-methanol extraction assay; type: biochemical; design: key: —: Not substantially different from values obtained using control cell extracts
Protocol: Since the TLC assay is more protracted than the chloroform-methanol extraction procedure, the latter (as described above for acid-labelled pyrethroids) was adopted to measure the 3-phenoxbenzoate anion produced from these substrates.
For all assays the molar amount of product formed was calculated from the known specific activity of the radiolabelled substrate. […] Assays at concentrations greater than 0.5 μM, which approximates the published aqueous solubility of permethrin, gave erratic results so precluding the measurement of Km and kcat. […] Assay conditions were therefore adjusted to measure the hydrolysis of the more-readily hydrolysed enantiomer in each pair. […] The same considerations about substrate solubility and proportionality of response to its concentration were assumed for all enzymes and substrates.
The specificity constant (ie kcat/Km) can therefore be calculated from the above equation using the initial hydrolysis rate (pmol/min, calculated from the known specific activity of the radiolabelled substrate) and the concentrations of substrate and enzyme in the assay. The diffusion-limited maximum value for a specificity constant is 10^8-10^9 M^−1sec^−1 (Stryer, 1981).

[5] = Esterase activity with α-naphthyl acetate; type: biochemical; conditions: substrate α-naphthyl acetate; for Km: read-out: α-NA activity Km

Row | Molecule | published solubility in aqueous solution [1] [µM] | 4-MU-palmitate activity [2] | enantiomer preference for trans permethrin [3] | Specificity Constant (kcat/Km) 1R cis αR deltamethrin [4] | Specificity Constant (kcat/Km) 1R cis αS deltamethrin [4] | Specificity Constant (kcat/Km) 1S cis αR deltamethrin [4] | Specificity Constant (kcat/Km) 1S cis αS deltamethrin [4] | α-NA activity kcat [5] [s⁻¹] | Km [5] [µM]
1 | CC1(C)C(C=C(Cl)Cl)C1C(=O)OCc1cccc(Oc2ccccc2)c1 (stereo not drawn) [permethrin] | 0.5 |  |  |  |  |  |  |  | 
2 | E3WT: wild-type Lucilia cuprina E3 α-carboxylesterase (SEQ ID NO:1), baculovirus expressed (protein, listed as Lucilia cuprina) MNFNVSLMEKLKWKIKCIENKFLNYRLTTNETVVAETEYGKVKGVKRLTVYDDSYYSFEGIPYAQPPVGELRFKAPQRPTPWDGVRDCCNHKDKSVQVDFITGKVCGSEDCLYLSVYTNNLNPETKRPVLVYIHGGGFIIGENHRDMYGPDYFIKKDVVLINIQYRLGALGFLSLNSEDLNVPGNAGLKDQVMALRWIKNNCANFGGNPDNITVFGESAGAASTHYMMLTEQTRGLFHRGILMSGNAICPWANTQCQHRAFTLAKLAGYKGEDNDKDVLEFLMKAKPQDLIKLEEKVLTLEERTNKVMFPFGPTVEPYQTADCVLPKHPREMVKTAWGNSIPTMMGNTSYEGLFFTSILKQMPMLVKELETCVNFVPSELADAERTAPETLEMGAKIKKAHVTGETPTADNFMDLCSHIYFWFPMHRLLQLRFNHTSGTPVYLYRFDFDSEDLINPYRIMRSGRGVKGVSHADELTYFFWNQLAKRMPKESREYKTIERMTGIWIQFATTGNPYSNEIEGMENVSWDPIKKSDEVYKCLNISDELKMIDVPEMDKIKQWESMFEKHRDLF |  | 0.0298 ± 0.0006^1 moles 4MU produced per sec per mole of enzyme | preference for the 1S trans enantiomer | — | — | —^1 | — | 248 | 71
3 | EST23WT: wild-type Drosophila melanogaster EST23 α-carboxylesterase (SEQ ID NO:2) (protein, Drosophila melanogaster) MNKNLGFVERLRGRLKTIEHKVQQYRQSTNETVVADTEYGQVRGIKRLSLYDVPYFSFEGIPYAQPPVGELRFKAPQRPIPWEGVRDCSQPKDKAVQVQFVFDKVEGSEDCLYLNVYTNNVKPDKARPVMVWIHGGGFIIGEANREWYGPDYFMKEDVVLVTIQYRLGALGFMSLKSPELNVPGNAGLKDQVLALKWIKNNCASFGGDPNCITVFGESAGGASTHYMMLTDQTQGLFHRGILQSGSAICPWAYNGDITHNPYRIAKLVGYKGEDNDKDVLEFLQNVKAKDLIRVEENVLTLEERMNKIMFRFGPSLEPFSTPECVISKPPKEMMKTAWSNSIPMFIGNTSYEGLLWVPEVKLMPQVLQQLDAGTPFIPKELLATEPSKEKLDSWSAQIRDVHRTGSESTPDNYMDLCSIYYFVFPALRVVHSRHAYAAGAPVYFYRYDFDSEELIFPYRIMRMGRGVKGVSHADDLSYQFSSLLARRLPKESREYRNIERTVGIWTQFAATGNPYSEKINGMDTLTIDPVRKSDEVIKCLNISDDLKFIDLPEWPKLKVWESLYDDNKDLLF |  | 0.0677 ± 0.0032 moles 4MU produced per sec per mole of enzyme |  | — | — |  |  | 276 | 82
4 | MpE4WT: wild-type Myzus persicae E4 α-carboxylesterase (SEQ ID NO:3) (protein, listed as Myzus persicae) MKNTCGILLNLFLFIGCFLTCSASNTPKVQVHSGEIAGGFEYTYNGRKIYSFLGIPYASPPVQNNRFKEPQPVQPWLGVWNATVPGSACLGIEFGSGSKIIGQEDCLFLNVYTPKLPQENSAGDLMNVIVHIHGGGYYFGEGILYGPHYLLDNNDFVYVSINYRLGVLGFASTGDGVLTGNNGLKDQVAALKWIQQNIVAFGGDPNSVTITGMSAGASSVHNHLISPMSKGLFNRAIIQSGSAFCHWSTAENVAQKTKYIANLMGCPTNNSVEIVECLRSRPAKAIAKSYLNFMPWRNFPFTPFGPTVEVAGYEKFLPDIPEKLVPHDIPVLISIAQDEGLIFSTFLGLENGFNELNNNWNEHLPHILDYNYTISNENLRFKTAQDIKEFYFGDKPISKETKSNLSKMISDRSFGYGTSKAAQHIAAKNTAPVYFYEFGYSGNYSYVAFFDPKSYSRGSSPTHGDETSYVLKMDGFYVYDNEEDRKMIKTMVNIWATFIKSGVPDTENSEIWLPVSKNLADPFRFTKITQQQTFEAREQSTTGIMNFGVAYH |  | 0.1051 ± 0.0033 moles 4MU produced per sec per mole of enzyme | preference for the 1S trans enantiomer |  |  |  |  | 3 | 28
